Experiments:
Assay type in all cases: cell-based, human
C81-61 cells = experiment: Soft agar colony forming assay, C81-61 cells; conditions: C81-61 cell line, rNodal
Method: (§1) An in vitro colony forming assay was used to analyze colony-forming ability of poorly aggressive C81-61 cells, aggressive C8161 cells, C8161 cells treated with MO^Nodal and C8161 cells treated with MO^Nodal and rescued with recombinant Nodal (100 ng/mL). The assay was conducted using 50,000 cells suspended in 0.35% agarose in RPMI containing 10% serum, which were plated into 6-well dishes on 0.5% agar in the same medium. Colonies grew, and pictures were taken at day 7. After 2 weeks, colonies were stained with Crystal Violet and counted.

C8161 cells = experiment: Soft agar / anchorage independent growth assay, C8161 cells; conditions: for rescue of inhibition of in vitro clonogenicity: recombinant Nodal 100 ng/mL
Method: as §1
The derivation and phenotypic characteristics of the human melanoma cell lines have been previously described. Seftor, et. al., 2002, Clin. Experim. Metastas. 19:233-246; Seftor, et. al., 2005 Cancer Res. 65:10164-10169. The melanoma cell lines are maintained in RPMI 1640 medium (Invitrogen) supplemented with 10% fetal bovine serum (FBS, Gemini Bioproducts) and 0.1% gentamycin sulfate with the exception of C81-61 cells which are maintained in Ham's FIO medium supplemented with 15% FBS, 1X Mito+ (BD Bioscience) and gentamycin sulfate. Normal human melanocytes are purchased (Cascade Biologics) or isolated from neonatal foreskins. Seftor, et. al., 2005. A single cell suspension is prepared, added to plastic flasks for the adherence of melanocytes and the cells propagated in Medium 254 with Human Melanocyte Growth Supplement (Cascade Biologics) including, 100 units/ml penicillin, 100 μg/ml streptomycin, and 250 ng/mL amphotericin B. The human embryonic stem cell lines are cultured as previously described. Thomson, et. al., 1998, Science 282:1145-1147. Briefly, cells are grown in 6-well plates precoated with 0.1% porcine gelatin and containing 1.9×10^5 irradiated mouse embryonic fibroblasts (strain CF-1; ATCC) per well. The cells are maintained in medium containing DMEM/F12 (1:1), 20% knock-out serum replacement, non-essential minimal amino acids, L-glutamine (Invitrogen), […], and 4 ng/ml FGF-2 (R&D Systems), and are split with collagenase (1 mg/ml) before the colonies begin to overlap. The cultures are determined to be free of mycoplasma contamination using a PCR-based assay (Roche). The normal human neonatal epidermal melanocytes (HEMn-LP; Cascade Biologics, Portland Oreg.), myoepithelial cells (Hs 578 Bst; American Type Culture Collection (ATCC), Manassas, Va.) and primary mammary epithelial cells (HMEpC; Cell Applications Inc., San Diego Calif.) were maintained as per distributor instructions. Live umbilical cord blood stem cells (SC00125; New Jersey Stem Cell Resource at Coriell Institute for Medical Research) amniotic fluid derived stem cells (GM00473, GM00957A) and adult bone marrow derived mesenchymal stem cells (Stem Cell Technologies, Vancouver BC, Canada) were maintained under the recommended conditions. The HTR-8/SVneo is a well characterized immortalized human extravillous cytotrophoblast cell line, and was maintained as previously described Graham et al., 1993, Exp. Cell Res. 206:204-211. […] The expression vector for wild type Nodal was kindly provided by Dr. Daniel Constam (Swiss Institute for Experimental Cancer Research (ISREC), Epalinges, Switzerland) and was transfected into C81-61 cells as previously described. Le Good et al., 2005, Curr. Biol. 15:31-36. […]

MDA-MB-231 cells = experiment: Soft agar / anchorage independent growth assay, MDA-MB-231 cells; conditions: recombinant Nodal 100 ng/mL
Method: The melanoma cell lines are maintained in RPMI 1640 medium (Invitrogen) supplemented with 10% fetal bovine serum (FBS, Gemini Bioproducts) and 0.1% gentamycin sulfate with the exception of C81-61 cells which are maintained in Ham's FIO medium supplemented with 15% FBS, 1X Mito+ (BD Bioscience) and gentamycin sulfate. Normal human melanocytes are purchased (Cascade Biologics) or isolated from neonatal foreskins. […] A single cell suspension is prepared, added to plastic flasks for the adherence of melanocytes and the cells propagated in Medium 254 with Human Melanocyte Growth Supplement (Cascade Biologics) including, 100 units/ml penicillin, 100 μg/ml streptomycin, and 250 ng/mL amphotericin B. The human embryonic stem cell lines are cultured as previously described. […] Briefly, cells are grown in 6-well plates precoated with 0.1% porcine gelatin and containing 1.9×10^5 irradiated mouse embryonic fibroblasts (strain CF-1; ATCC) per well. […] The cultures are determined to be free of mycoplasma contamination using a PCR-based assay (Roche). […] The conditioned matrix is then analyzed by 2-D LDS-PAGE and Western blot directly, or reseeded with melanoma cells and incubated for an additional 3 days. […]

Nodal = Nodal expression in C8161 cells (Western blot, real time RT-PCR); conditions: C8161 exposed 48 hrs to 0-1000 ng/mL recombinant Lefty
Method: A determination of the effects of H9 CMTX on Nodal expression in metastatic melanoma (C8161) and breast carcinoma (MDA-MB-231) cells was undertaken. […] Exposure to H9 CMTX similarly abrogates Nodal mRNA expression in the melanoma and breast carcinoma cells (FIG. 9C).
Protein lysates were prepared and quantified as previously described in Hess et al., 2001, Cancer Res. 61:3250-3255. Equal amounts of protein were separated by SDS-polyacrylamide gel electrophoresis under reducing conditions, and the resolved proteins were transferred onto Immobilon-P membranes (Millipore Corp., Bedford, Mass.). Membranes were blocked in 1% TBS, 0.1% Tween 20 (TBS-T) and 5% dry milk powder or 3% gelatin (for Nodal Westerns). Blots were incubated with anti-Nodal or anti-Lefty antibodies (Polyclonal rabbit anti-Nodal (H-110) 1:500 Santa Cruz Biotechnology, Santa Cruz, Calif.; Polyclonal goat anti-Lefty 1:500 R&D Systems, Minneapolis, Minn.), washed in TBS-T, and incubated with the appropriate horseradish peroxidase-labeled secondary antibody. Secondary antibodies were detected by enhanced chemiluminescence (Super Signal; Pierce, Rockford, Ill.) and exposure to autoradiography film (Molecular Technologies, St Louis, Mo.). Nodal protein was detected as two major bands at ˜48 and ˜35 kDa representing precursor and pro-Nodal respectively. Nodal often appeared as multiple bands, likely due to degradation of protein modifications. All experiments were done at least three times.
The derivation and phenotypic characteristics of the human melanoma cell lines have been previously described. Seftor, et. al., 2002, Clin. Experim. Metastas. 19:233-246; Seftor, et. al., 2005 Cancer Res. 65:10164-10169. The melanoma cell lines are maintained in RPMI 1640 medium (Invitrogen) supplemented with 10% fetal bovine serum (FBS, Gemini Bioproducts) and 0.1% gentamycin sulfate with the exception of C81-61 cells which are maintained in Ham's FIO medium supplemented with 15% FBS, 1X Mito+ (BD Bioscience) and gentamycin sulfate. […] The cultures are determined to be free of mycoplasma contamination using a PCR-based assay (Roche). […]

| Molecule | colony formation (C81-61 cells) | rescue of inhibition of in vitro clonogenicity (C8161 cells; C8161 exposed to H9 CMTX) | rescue of inhibition of in vitro clonogenicity (C8161 cells; C8161 exposed to H9 Lefty-containing matrix) | rescue of reduced colony formation (C8161 cells; C8161 treated with MONodal, rNodal 100 ng/mL) | rescue of inhibition of in vitro clonogenicity (MDA-MB-231 cells; MDA-MB-231 exposed to H9 CMTX) | rescue of inhibition of in vitro clonogenicity (MDA-MB-231 cells; MDA-MB-231 exposed to H9 Lefty-containing matrix) | Nodal protein expression (Western blot) (Nodal) |
| --- | --- | --- | --- | --- | --- | --- | --- |
| rNodal: recombinant Nodal (R&D Systems), used at 100 ng/mL (protein, UniProt Q96S42 238-347, looked up) Nodal homolog: HHLPDRSQLCRKVKFQVDFNLIGWGSWIIYPKQYNAYRCEGECPNPVGEEFHPTNHAYIQSLLKRYQPHRVPSTCCAPVKTKPLSMLYVDNGRVLLDHHKDMIVEECGCL | did not induce colony formation | partially rescued | completely rescued | rescued | partially rescued | completely rescued | – |
| rLeftyB: recombinant Lefty-B (protein, UniProt O00292 77-366, looked up) Left-right determination …: RFSQSFREVAGRFLASEASTHLLVFGMEQRLPPNSELVQAVLRLFQEPVPKAALHRHGRLSPRSAQARVTVEWLRVRDDGSNRTSLIDSRLVSVHESGWKAFDVTEAVNFWQQLSRPRQPLLLQVSVQREHLGPLASGAHKLVRFASQGAPAGLGEPQLELHTLDLRDYGAQGDCDPEAPMTEGTRCCRQEMYIDLQGMKWAKNWVLEPPGFLAYECVGTCQQPPEALAFNWPFLGPRQCIASETASLPMIVSIKEGGRTRPQVVSLPNMRVQKCSCASDGALVPRRLQP | – | – | – | – | – | – | can inhibit Nodal protein in C8161 cells, but at a higher doses than its hESC counterpart |

From patent publication US8106004B2, “Methods of inhibiting tumor cell aggressiveness using the microenvironment of human embryonic stem cells” (Children's Memorial Hospital, priority 2006, dated 2012)
